Reference: paper PMC12344292, “Structural basis for membrane microdomain formation by a human Stomatin complex” (Nature Communications, 2025)

Molecular target: the molecule itself
Experiment: cryo-EM structure; single-particle analysis of native membrane vesicles holding ALFA-tagged Stomatin, isolated on ALFA Selector CE resin and eluted with 0.2 mM ALFA peptide; 20 mM K-HEPES pH 7.4, 300 mM KCl, 5 mM DTT; C16 then local C8 symmetry

B1: human Stomatin (natural protein, UniProt P27105-1 1-288, looked up)
chain: MAEKRHTRDSEAQRLPDSFKDSPSKGLGPCGWILVAFSFLFTVITFPISIWMCIKIIKEYERAIIFRLGRILQGGAKGPGLFFILPCTDSFIKVDMRTISFDIPPQEILTKDSVTISVDGVVYYRVQNATLAVANITNADSATRLLAQTTLRNVLGTKNLSQILSDREEIAHNMQSTLDDATDAWGIKVERVEIKDVKLPVQLQRAMAAEAEASREARAKVIAAEGEMNASRALKEASMVITESPAALQLRYLQTLTTIAAEKNSTIVFPLPIDMLQGIIGAKHSHLG
notes: Stomatin, human, UniProt P27105-1; full-length protein in its membrane environment; The final atomic model includes residues 14-18 and 29-278; The 16 identical chains adopt two alternating conformations (Conformer A and B); also called N-terminal ALFA-tagged human Stomatin; Stomatin complex; source: HEK293S GnTI- cells infected with BacMam baculovirus (pEG BacMam); isolated in native membrane …
stoichiometry N: 16
